Numbering of substitutions follows the chain as printed.
T1: full-length CD25 (human CD25, recombinant protein used on biosensors) (human, UniProt P01589 22-213, limits assumed)
T1 construct: Printed only as Human CD25 / full-length CD25; also called CD25 antigen; alpha chain of the IL-2 receptor
T1 sequence (looked up): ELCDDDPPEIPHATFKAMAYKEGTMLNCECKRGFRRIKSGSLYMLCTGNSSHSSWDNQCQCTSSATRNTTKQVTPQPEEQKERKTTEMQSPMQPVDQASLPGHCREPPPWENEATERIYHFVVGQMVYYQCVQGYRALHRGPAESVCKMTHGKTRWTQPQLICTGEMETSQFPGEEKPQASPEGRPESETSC

T2: CD25 on CD25+ cells (SUDHL-1, HEK IL-2 reporter cells, primary human regulatory T cells) (human, UniProt P01589 22-272)
T2 sequence (looked up): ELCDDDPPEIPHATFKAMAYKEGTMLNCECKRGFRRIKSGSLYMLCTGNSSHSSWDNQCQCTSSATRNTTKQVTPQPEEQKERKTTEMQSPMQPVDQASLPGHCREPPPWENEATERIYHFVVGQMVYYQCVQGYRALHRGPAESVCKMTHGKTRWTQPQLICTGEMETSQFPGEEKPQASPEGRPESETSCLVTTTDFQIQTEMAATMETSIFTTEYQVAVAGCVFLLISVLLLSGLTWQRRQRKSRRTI

B1: D16 Fab (Fab, V domains shown)
VH: QVQMQQSGAELVRPGTSVKISCKASGYTFTNYWLGWVKQRPGHGLEWIGDIYPGGGYTNYNEKFKGKATLTADTSSSTAYMQLSSLTSEDSAVYFCARVTPASWGQGTTLTVSS
VL: DIQMTQSQKFMSTSVGDRVSVTCKASQNVGTNVAWYQQKPGQSPKALIYSASYRYSGVPDRFTGSGSGTDFTLTISNVQSEDLAEYFCQQYNSYPWTFGGGTKLEIK
notes: Fab; also called Fab clone D16
B2: D17 Fab (Fab, V domains shown)
VH: B1 VH with V2I, M4L, S114A
VL: B1 VL with Q3L, M4L, W96L
notes: Fab; also called Fab clone D17
B3: D11 Fab (Fab, V domains shown)
VH: QIQLQQPGAELVRPGVSLKISCKGSGYTFTDYAMHWVRQSHAKSLEWIGVISTYSGDAIYNQKFKGKATMTVDKSSSTAYLELARLTSDDSAIYYCARGVTFDYWGQGTTVTVSS
VL: DIQMTQTTSSLSASLGDRVTITCRASQDISNYLEWYQQKQGKSPQLLVYNAKTLAEGVPSRFSGSGSGTQFSLKINSLQPEDFGSYYCQHHYDTPYTFGGGTKLEIK
notes: Fab; also called Fab clone D11

The binders below were run against T1, full-length CD25 (human CD25, …) (assay: Octet BLI, human CD25 on AR2G tip, Fab, pH 6.5).
Experimental: For Octet Koff rate screening in raw supernatants, 50 ul of lysate was used in 384-well Pall ForteBio Octet plates. […] Briefly, Human CD25 was coupled to AR2G tips (1 ug/ml). For data collection, baseline was assessed in PBST 1% BSA buffer at pH 6.5 for 60 seconds. Tips were then moved to 50 ul lysate pH6.5 adjusted and association measured for 300 seconds. Finally, tips were moved to PBST 1% BSA buffer at pH 6.5. Tips were then regenerated with 200 mM Tris-Glycine, pH 2.5 and neutralization with PBST, 1% BSA, pH 6.5. For data analysis, Double referencing was performed on Octet HT 11.0 software (no CD25 on tip as well as blank reference well), for reference subtraction.

| Binder | koff |
| --- | --- |
| B1 | 0.00591 s⁻¹ |
| B2 | 0.00536 s⁻¹ |
| B3 | 0.00522 s⁻¹ |

What follows are binders tested against T1, full-length CD25 (human CD25, …) (assay: Octet BLI, human CD25 on AR2G tip, Fab, pH 7.4).

| Binder | koff |
| --- | --- |
| B1 | 0.004 s⁻¹ |
| B2 | 0.00337 s⁻¹ |
| B3 | 0.00452 s⁻¹ |

Each binder was assayed against T2, CD25 on CD25+ cells (SUDHL-1, HEK IL-2 …) (assay: cell-based or functional assay).

| Binder | pSTAT5 IC50 (1 ug/mL) [ng/ml] | pSTAT5 IC50 (2 ug/mL) [ng/ml] | pSTAT5 IC50 (5 ug/mL) [ng/ml] |
| --- | --- | --- | --- |
| B1 | 0.43 ng/ml | 4.77 ng/ml | 40.3 ng/ml |
| B2 | 0.251 ng/ml | 0.217 ng/ml | 0.283 ng/ml |
| B3 | 0.414 ng/ml | 0.303 ng/ml | 0.509 ng/ml |

Source: patent publication US20250122301A1 (IBIO, published 2025)
